In IntAct's records for PubMed 29276004:

B1: Rho-related BTB domain-containing protein 2 (Homo sapiens), Q9BYZ6-2 (parent)
chain: MQAWRKGPDGPQKTSSDSMSRLMDSDMDYERPNVETIKCVVVGDNAVGKTRLICARACNATLTQYQLLATHVPTVWAIDQYRVCQEVLERSRDVVDDVSVSLRLWDTFGDHHKDRRFAYGRSDVVVLCFSIANPNSLHHVKTMWYPEIKHFCPRAPVILVGCQLDLRYADLEAVNRARRPLARPIKPNEILPPEKGREVAKELGIPYYETSVVAQFGIKDVFDNAIRAALISRRHLQFWKSHLRNVQRPLLQAPFLPPKPPPPIIVVPDPPSSSEECPAHLLEDPLCADVILVLQERVRIFAHKIYLSTSSSKFYDLFLMDLSEGELGGPSEPGGTHPEDHQGHSDQHHHHHHHHHGRDFLLRAASFDVCESVDEAGGSGPAGLRASTSDGILRGNGTGYLPGRGRVLSSWSRAFVSIQEEMAEDPLTYKSRLMVVVKMDSSIQPGPFRAVLKYLYTGELDENERDLMHIAHIAELLEVFDLRMMVANILNNEAFMNQEITKAFHVRRTNRVKECLAKGTFSDVTFILDDGTISAHKPLLISSCDWMAAMFGGPFVESSTREVVFPYTSKSCMRAVLEYLYTGMFTSSPDLDDMKLIILANRLCLPHLVALTEQYTVTGLMEATQMMVDIDGDVLVFLELAQFHCAYQLADWCLHHICTNYNNVCRKFPRDMKAMSPENQEYFEKHRWPPVWYLKEEDHYQRARKEREKEDYLHLKRQPKRRWLFWNSPSSPSSSAASSSSPSSSSAVV

Variants of: B1
Conditions: with cul3_human CUL3, Q13618

| effect of a mutation on the interaction | Variant |
| --- | --- |
| with no effect | A474G |
| with no effect | R483H |
| with no effect | R511Q |
